# US20180346555A1 (Regeneron, published 2018)
# T1: Hazel (Cor A 1, MyBiosource, Cat# MBS5304600) (Hazel, UniProt Q08407 2-160, limits assumed)
# T1 construct: Bought reagent
# T1 sequence (looked up): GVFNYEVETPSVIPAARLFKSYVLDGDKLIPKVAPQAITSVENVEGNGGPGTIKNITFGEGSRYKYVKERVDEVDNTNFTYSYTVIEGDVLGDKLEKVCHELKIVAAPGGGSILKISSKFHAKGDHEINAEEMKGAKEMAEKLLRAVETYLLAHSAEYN
# T2: natural Bet v 1 (Betula verrucosa (Betula pendula), UniProt P15494 2-160)
# T2 construct: Bought natural protein; also called nBet v 1
# T2 chain: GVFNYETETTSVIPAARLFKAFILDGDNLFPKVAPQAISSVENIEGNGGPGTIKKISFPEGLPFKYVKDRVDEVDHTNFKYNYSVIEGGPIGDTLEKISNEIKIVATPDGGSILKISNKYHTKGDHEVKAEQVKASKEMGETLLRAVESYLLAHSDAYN
# What was measured:
# [1] = molecular target: T1, Hazel (Cor A 1, MyBiosource, Cat# …); test: SPR Biacore 4000, mAb captured by anti-human Fc, 25 C;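 further: allergen analyte binding to captured, purified anti-Bet v 1 monoclonal antibodies, SPR in HEPES-buffered saline running buffer with EDTA and Tween-20 at pH 7.4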
# Protocol: Equilibrium dissociation constants (KD) for different related allergens binding to purified anti-Bet v 1 monoclonal antibodies were determined using a real-time surface plasmon resonance biosensor (SPR-Biacore) on a Biacore 4000 instrument. All binding studies were performed in 10 mM HEPES, 150 mM NaCl, 3 mM EDTA, and 0.05% v/v surfactant Tween-20, pH 7.4 (HBS-ET) running buffer at 25° C. […] Association (kₐ) and dissociation (kd) rate constants were determined by fitting the real-time binding sensorgrams to a 1:1 binding model with mass transport limitation using Scrubber 2.0c curve-fitting software. Binding dissociation equilibrium constants (KD) and dissociative half-lives (t½) were calculated from the kinetic rate constants as:
# [2] = molecular target: T2, natural Bet v 1; test: SPR Biacore 4000, mAb captured on anti-human Fc, 37C;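 further: kinetic rate constants from SPR sensorgrams fitted to a 1:1 model with mass transport limitation, HBS-ET buffer pH 7.4, KD and t½ derived from the rate constants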
# Protocol: (§1) Equilibrium dissociation constants (KD) for natural Bet v 1 binding to purified anti-Bet v 1 monoclonal antibodies were determined using a real-time surface plasmon resonance biosensor (SPR-Biacore) on a Biacore 4000 instrument. All binding studies were performed in 10 mM HEPES, 150 mM NaCl, 3 mM EDTA, and 0.05% v/v surfactant Tween-20, pH 7.4 (HBS-ET) running buffer at 25° C. and 37° C. […] Association (kₐ) and dissociation (kd) rate constants were determined by fitting the real-time binding sensorgrams to a 1:1 binding model with mass transport limitation using Scrubber 2.0c curve-fitting software. Binding dissociation equilibrium constants (KD) and dissociative half-lives (t½) were calculated from the kinetic rate constants as:
# [3] = molecular target: T2, natural Bet v 1; test: SPR Biacore 4000, mAb captured on anti-human Fc, 25C;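 further: purified anti-Bet v 1 mAbs probed with natural Bet v 1 in HBS-ET buffer (HEPES, NaCl, EDTA, Tween-20) at pH 7.4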
# Protocol: as §1
100 nM Analyte Bound (RU) [1],binding result [1],100 nM natural Bet v 1 Bound (RU) [2],Kd [2],koff [2],kon [2],t½ [2],100 nM natural Bet v 1 Bound (RU) [3],Kd [3],koff [3],kon [3],t½ [3],Binder
0 RU,no binding (tested: 100 nM),,,,,,,,,,,"H4H17001P (antibody, human IgG4, V domains shown, Fully human antibody with human IgG4 Fc (H4H prefix)) VH: QVQLVESGGGLVKPGGSLRLSCAASGFTFSDYYMNWIRQAPGKGLEWISLISSSGSAIYYSDSVKGRFTISRDNARKSLYLQVNSLRAEDTAVYYCARDRGEWALGAYYYGLDVWGQGTTVTVSS VL: DIVMTQSPLSLPVTPGEPASISCRSSQSLLHSDGYNYLDWYLQKSGQSPQLLIYLGSNRASGVPDRFSGSGSGTDFTLKISRMEAEDVGVYYCMQALQTPYTFGQGTKLEIK"
,,71 RU,7.77 nM,0.0029 s⁻¹,373000 M⁻¹ s⁻¹,3.9 min,63 RU,3.79 nM,0.00107 s⁻¹,281000 M⁻¹ s⁻¹,11 min,"H4H17028P (antibody, human IgG4, V domains shown) VH: QVQLVESGGGVVQPGRSLRLSCAASGFTFSRYAIHWVRQAPGKGLEWVAVISYDGDDKYYGDSVKGRFTISRDNSKTMVYLHMNSLRTEDTAVYYCAKDGYSLYGKDYFDYWGQGTLVTVSS VL: EIVLTQSPGTLPLSPGERATLSCRASQSITNSYLAWYQQKPDQAPRLLIYGASSRATGIPDRFSGSESGTDFTLTISRLEPEDFAVYYCQQYVRSPWTFGQGTKVEIK"
,,80 RU,5.48 nM,0.00147 s⁻¹,268000 M⁻¹ s⁻¹,7.9 min,58 RU,3.56 nM,0.000402 s⁻¹,113000 M⁻¹ s⁻¹,29 min,"H4H17067P2 (antibody, human IgG4, V domains shown) VH: EVQLVQSGAEVKKPGESLKISCSGSGYRFTNYWIAWVRQMPGKGLEWMGLIHPDDSDIRYSPSFQGQVTFSVDKSINTAYLQWSSLKASDTAMYYCTRQDGILWSHNAWFDPWGQGTLVTVSS VL: not shown"
1 RU,no binding (tested: 100 nM),,,,,,,,,,,"H4H17015P (antibody, human IgG4, V domains shown, Fully human antibody with human IgG4 Fc (H4H prefix)) VH: QVQLQESGPGLVKPSQTLSLTCTVSGGSISSADHYWSWIRQQPGKGLEWIGYISYRGTTYYNPTLESRVSISVDTFKNQFSLMLHSVTVADTAVYYCAKVLQGLVRFRDYGFDVWGQGTTVTVSS VL: DIQLTQSPPFLSASVGDRVTITCWASQDISSYLAWYQQNPGKSPKLLIYDAFTLHTGVPSRFSGSGSGTEFTLTISSLQPEDFATFYCQHLYSFPFTFGPGTKVDIK"
,,74 RU,1.9 nM,0.00119 s⁻¹,627000 M⁻¹ s⁻¹,10 min,61 RU,1.19 nM,0.000469 s⁻¹,394000 M⁻¹ s⁻¹,25 min,"H4H17033P (antibody, human IgG4, V domains shown) VH: QVQLVQSGAEVKKPGASVKVSCKASGYTFAAHYMHWVRQAPGQGLEWMGWINTYTGGTNYGQKFQGRVTMTRDTSITTAYMELSRLRSDDTAVYYCARDRRNWNFVFEYWGQGTLVTVSS VL: DIQMTQSPSSLSASVGDRVTISCRASQNIKNYLNWYQQKPGKAPKLLIYEASNLQSGAPSRFSGSGSGTDFTLTISSLEPEDFATYYCQQSFSIPWTFGQGTKVEIK"
,,67 RU,9.48 nM,0.00093 s⁻¹,98100 M⁻¹ s⁻¹,12 min,48 RU,4.32 nM,0.00027 s⁻¹,62400 M⁻¹ s⁻¹,43 min,"H4H17027P (antibody, human IgG4, V domains shown) VH: EVQLVESGGGLVQPGGSLRLSCAASGFTFRNYAMHWVRQAPGEGLEWVAAIYRNSDSIDYADSVKGRFTISRDNAKNSLYLQMNSLKTEDTALYYCAKDEGFLEYFDSWGQGTLVTVSS VL: EIVLTQSPGTLSLSPGERASLSCRASQSVSSSFLAWYQQKPGQAPRLLIYGVSSRFIGIPDRFSGGGSGTDFTLTITRLEPEDFAVYYCQQYGRSPWTFGQGTKVEIK"
,,90 RU,1.86 nM,0.000441 s⁻¹,237000 M⁻¹ s⁻¹,26 min,69 RU,1.22 nM,0.000149 s⁻¹,122000 M⁻¹ s⁻¹,78 min,"H4H17045P2 (antibody, human IgG4, V domains shown) VH: EVQLVESGGGLVQPGVSLRLSCVASGFTFSNYDITWIRQIPGKGLEWVSRISGSGGSTYFADSVKGRFIISRDNSKNTVYMQMNSLRAEDSAVYYCARRDSVLFSMNSWLDPWGQGTLVTVSS VL: not shown"
0 RU,no binding (tested: 100 nM),,,,,,,,,,,"H4H16992P (antibody, human IgG4 S228P, kappa, V domains shown, human IgG4 Fc; also called REGN5713; MAB1) VH: QVQLQESGPGLVKPSETLSLTCSVSGGSITNYFWTWIRQSPGKGLEWIGYIYYSGGTNYNPSLKSRVTISIDTSKNQFSLNMNSVTAADTAVYYCAGSYYYGVDVWGQGTTVTVSS VL: EIVLTQSPATLSLSPGERATLSCRASQSIKSFLAWYRQKPGQAPRLLIYDASNRPTGIPARFSGSGSGTDFTLTINSLESEDFAVYFCQQRNNWPFTFGPGTKVDIKR"

# Continued, binder first:
Binder,100 nM Analyte Bound (RU) [1],binding result [1],100 nM natural Bet v 1 Bound (RU) [2],Kd [2],koff [2],kon [2],t½ [2],100 nM natural Bet v 1 Bound (RU) [3],Kd [3],koff [3],kon [3],t½ [3]
"H4H16946P (antibody, human IgG4, V domains shown, Fully human antibody with human IgG4 Fc (H4H prefix)) VH: EVQLVESGGGLVQPGGSLRLSCVASGFTFSNYDMNWVRQAPGEGLEWISYISYSDHNIYYIDSVKGRFTISRDNAKNSLYLQMNSLRAEDTAIYYCAREALASSSFDYWGQGTLVTVSS VL: EIVMTQSPATLSVSPGERVTLSCRASQSVSGNLAWYQQKPGQAPRLLIYSASTGATGVPARFSGSGSGTEFTLTISSLQSEDFALYYCQQYNKWPRTIGQGTKVEIK",-1 RU,,,,,,,,,,,
"H4H16967P (antibody, human IgG4, V domains shown, Fully human antibody with human IgG4 Fc (H4H prefix)) VH: QVQLVESGGGVVQPGRSLRLSCAASGFTFSSYGMHWFRQAPGKGLEWVGVIWSDGSDKKYADSVKGRFTISRDNSKNTLYLLMNSLRDDDTAVYHCAREGGFLYSSSSHFDYWGQGTLVTVSS VL: AIQMTQSPSSLSASVGDRVTITCRTSQGIRNDLGWYQQKPGKAPKLLIFAASSLQSGVPSRFSGSGSGTDFTLTISSLQPEDFAIYYCLQDYKYPFTFGGGTKVEIK",0 RU,no binding (tested: 100 nM),,,,,,,,,,
"H4H16979P (antibody, human IgG4, V domains shown, Fully human antibody with human IgG4 Fc (H4H prefix)) VH: QVQLVQSGAEVKKPGASVKVSCKASGYTFIAYYLHWVRQAPGQGLEWMGLLNPYTGGSYYTQKFQGRVTMTRDTSIDTAYMELNSLRSDDTAIYYCARDKRSYYIPYAFEIWGQGTMVTVSS VL: not shown",0 RU,no binding (tested: 100 nM),,,,,,,,,,
"H4H16987P (antibody, human IgG4 S228P, kappa, V domains shown, human IgG4 Fc; also called MAB4) VH: EVQLVESGGGLVQPGGSLRLSCAASGFTVSSNSMSWVRQAPGEGLEWVSVIFSGGITYYSDSVKGRFTISRHNSKNTLYLQMNSLRTEDTAVYYCARHSNWNFDAFDIWGQGTMVTVSS VL: DIQMTQSPSSLSASVGDRVTITCRASQSFDTYLNWYQQKPGKAPNLLIYATSSLQSGVPSRFSGSGSGTDFTLTISSLQPEDFGTYYCQQSYSIPYTFGQGTKLEIKR",0 RU,no binding (tested: 100 nM),,,,,,,,,,
"H4H16991P (antibody, human IgG4, V domains shown, Fully human antibody with human IgG4 Fc (H4H prefix)) VH: QVQLVQSGAEVRKPGASVKVSCKASGYTFTGYYLHWVRQAPGQGLEWMGLINPNTGGTNFAQKFQGRVTMTRDSSISAAYMELSRLRSDDTAVYYCARQHWNRYFDNWGQGTLVTVSS VL: DIQMTQSPSTLSASVGDRVTITCRASQSVGNWLAWYQQKPGKAPKLLIQEASSIESGVPSRFSGSGSGTEFTLIVSSLQPDDFATYYCQQYNSYSWTFGHGTKVEIK",0 RU,no binding (tested: 100 nM),,,,,,,,,,
"H4H16960P (antibody, human IgG4, V domains shown, Fully human antibody with human IgG4 Fc (H4H prefix)) VH: QLQLQESGPGLVRPSETLSLTCTVSGGSISSSNYWWGWIRQPPGKGLEWIGSIYYSGITYYNPSLKSRVTISADTSKDQFSLKLRSVTAADTAVYYCAKLEWLRLDFWGQGTTVTVSS VL: DIQMTQSPSSVSASVGDRVTITCRASQGISSWLVWYQQKPGKVPKLLIYAASSLQSGVPLRFSGSGSGTDFTLTISSLQPEDFATYYCQQAKSFPLTFGQGTRLEIK",0 RU,no binding (tested: 100 nM),,,,,,,,,,
"H4H16971P (antibody, human IgG4, V domains shown, Fully human antibody with human IgG4 Fc (H4H prefix)) VH: QVQLVESGGGVVQPGRSLRLSCAASGFTFSSYGLHWVRQAPGKGLEWVAVISDDGSYKFYADSMKGRFTISRDNSKNTLYLQMNSLRAEDTAVYYCAKDRGRSGWYYFDYWGQGTLVTVSS VL: not shown",0 RU,no binding (tested: 100 nM),,,,,,,,,,
"H4H16943P (antibody, human IgG4, V domains shown, Fully human antibody with human IgG4 Fc (H4H prefix)) VH: EVQLVESGGGLVQPGGSLRLSCTASGFMSSMYWMSWVRQAPGKGLEWVSNIKQDGTEKNYVESVKGRFTISRDNAKNSLYLQINSLRGEDTAVYYCARDLYSSSSGYYYYGLDVWGQGTTVTVSS VL: DIVMTQSPLSLPVTPGEPASISCRSSQSLLHSNKYNYLDWYLQKPGQSPQLLIYLSSNRASGVPDRFSGSGSGTEFTLKISRVEAEDVGIYYCMQALHTPLTFGGGTKVEIK",0 RU,no binding (tested: 100 nM),,,,,,,,,,
"H4H16950P (antibody, human IgG4, V domains shown, Fully human antibody with human IgG4 Fc (H4H prefix)) VH: QVQLVQSGAEVKKPGASVKVSCKTSGYTFTNYGITWVRQAPGQGLEWMGWISAYNGNTNYAQNVQGRVTMTTDTSTSTAYMEVRSLRSDDTAVYYCARRSSMLHFQHWGQGTLVTVSS VL: DIVMTQSPDSLAVSLGERATINCKSSQHVLYDSSNENYLAWFQQKPGQPPKLLIYWASTRESGVPDRFSGSGSGTDFTLTISSLQAEDVAVYYCQQYSSAPYTFGQGTKLEIK",0 RU,no binding (tested: 100 nM),,,,,,,,,,
